How the values were obtained:
[1] = molecular target: synthetic D-streptavidin (mirror-image streptavidin) (S. avidinii); assay: SEC; analytical SEC of the folded proteins, with molecular weight standards
[2] = molecular target: synthetic L-streptavidin (S. avidinii); assay: as above

stoichiometry N [1]	stoichiometry N [2]	Substance
4	–	synthetic D-streptavidin (mirror-image streptavidin)
–	4	synthetic L-streptavidin (natural protein)
